Experimental findings from article PMC6353898 (2019) are described below.

The target of the test is EGFR recombinant human protein (human, UniProt P00533 25-645). The test can be described thus: SPR.

B1: Pep24 (designed binder)
peptide: AEYDFYGPGNEGSW
In the case of B1, the Kd came to 7.2 µM.
